Tests used:
[1] = target: T1, recombinant human WT C3(H2O) (human, UniProt P01024 23-1663); test: SPR
murine C3b Asn1115 = murine C3b Asn1115 (mouse, UniProt P01027 749-1663; P01027 749-1663, D1115N); test: SPR
[2] = target: T1, recombinant human WT C3(H2O); test: SPR; methylamine-treated C3
[3] = target: recombinant human C3(H2O) Asn1115 (human, UniProt P01024 23-1663, D1115N); test: SPR; methylamine-treated C3
Sequence of recombinant human C3(H2O) Asn1115 (P01024 23-1663 D1115N): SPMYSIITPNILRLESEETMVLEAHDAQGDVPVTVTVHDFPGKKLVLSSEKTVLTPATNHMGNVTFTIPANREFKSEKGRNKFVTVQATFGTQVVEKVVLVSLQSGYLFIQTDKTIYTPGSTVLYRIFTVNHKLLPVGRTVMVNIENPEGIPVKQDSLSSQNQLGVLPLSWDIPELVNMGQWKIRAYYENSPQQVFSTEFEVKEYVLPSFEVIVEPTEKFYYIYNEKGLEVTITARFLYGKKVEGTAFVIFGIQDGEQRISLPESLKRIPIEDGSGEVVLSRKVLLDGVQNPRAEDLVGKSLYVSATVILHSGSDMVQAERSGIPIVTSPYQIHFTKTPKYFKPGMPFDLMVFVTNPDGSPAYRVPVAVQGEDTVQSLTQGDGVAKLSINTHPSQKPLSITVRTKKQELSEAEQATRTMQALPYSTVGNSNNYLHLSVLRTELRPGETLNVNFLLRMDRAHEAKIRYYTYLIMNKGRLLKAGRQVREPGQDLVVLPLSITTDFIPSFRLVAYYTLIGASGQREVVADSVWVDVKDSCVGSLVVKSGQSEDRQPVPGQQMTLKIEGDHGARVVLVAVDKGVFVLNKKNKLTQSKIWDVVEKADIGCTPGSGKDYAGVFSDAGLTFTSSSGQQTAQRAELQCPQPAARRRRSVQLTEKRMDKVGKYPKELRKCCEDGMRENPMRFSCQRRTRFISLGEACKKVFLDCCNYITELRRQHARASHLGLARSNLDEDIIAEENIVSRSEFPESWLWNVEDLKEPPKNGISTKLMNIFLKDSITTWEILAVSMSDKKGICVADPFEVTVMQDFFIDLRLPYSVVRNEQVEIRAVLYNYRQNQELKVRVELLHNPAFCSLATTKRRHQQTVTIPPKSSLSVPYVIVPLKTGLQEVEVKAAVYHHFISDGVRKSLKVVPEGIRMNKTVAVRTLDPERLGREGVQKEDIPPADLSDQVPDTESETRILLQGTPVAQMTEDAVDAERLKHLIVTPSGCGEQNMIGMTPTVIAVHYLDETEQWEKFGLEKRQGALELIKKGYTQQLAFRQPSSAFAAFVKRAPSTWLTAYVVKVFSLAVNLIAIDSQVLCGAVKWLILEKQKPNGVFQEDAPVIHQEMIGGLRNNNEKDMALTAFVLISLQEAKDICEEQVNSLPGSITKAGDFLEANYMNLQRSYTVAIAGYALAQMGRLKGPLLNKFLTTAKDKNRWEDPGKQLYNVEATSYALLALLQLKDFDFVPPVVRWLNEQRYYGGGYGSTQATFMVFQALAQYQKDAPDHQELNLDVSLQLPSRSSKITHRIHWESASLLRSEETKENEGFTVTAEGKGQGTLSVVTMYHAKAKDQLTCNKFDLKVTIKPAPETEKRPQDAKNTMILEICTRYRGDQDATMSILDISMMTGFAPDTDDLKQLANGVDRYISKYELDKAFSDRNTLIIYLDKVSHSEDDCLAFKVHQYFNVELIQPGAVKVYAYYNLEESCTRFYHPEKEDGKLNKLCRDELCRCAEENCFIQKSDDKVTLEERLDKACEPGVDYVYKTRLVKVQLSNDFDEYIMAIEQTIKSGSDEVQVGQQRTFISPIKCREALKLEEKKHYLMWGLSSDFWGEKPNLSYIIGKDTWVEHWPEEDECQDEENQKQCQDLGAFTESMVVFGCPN

T1 sequence (P01024 23-1663): as the sequence (P01024 23-1663 D1115N) above, with N1093D counted along it
Sequence of murine C3b Asn1115 (P01027 25-666, chain 1 of 2): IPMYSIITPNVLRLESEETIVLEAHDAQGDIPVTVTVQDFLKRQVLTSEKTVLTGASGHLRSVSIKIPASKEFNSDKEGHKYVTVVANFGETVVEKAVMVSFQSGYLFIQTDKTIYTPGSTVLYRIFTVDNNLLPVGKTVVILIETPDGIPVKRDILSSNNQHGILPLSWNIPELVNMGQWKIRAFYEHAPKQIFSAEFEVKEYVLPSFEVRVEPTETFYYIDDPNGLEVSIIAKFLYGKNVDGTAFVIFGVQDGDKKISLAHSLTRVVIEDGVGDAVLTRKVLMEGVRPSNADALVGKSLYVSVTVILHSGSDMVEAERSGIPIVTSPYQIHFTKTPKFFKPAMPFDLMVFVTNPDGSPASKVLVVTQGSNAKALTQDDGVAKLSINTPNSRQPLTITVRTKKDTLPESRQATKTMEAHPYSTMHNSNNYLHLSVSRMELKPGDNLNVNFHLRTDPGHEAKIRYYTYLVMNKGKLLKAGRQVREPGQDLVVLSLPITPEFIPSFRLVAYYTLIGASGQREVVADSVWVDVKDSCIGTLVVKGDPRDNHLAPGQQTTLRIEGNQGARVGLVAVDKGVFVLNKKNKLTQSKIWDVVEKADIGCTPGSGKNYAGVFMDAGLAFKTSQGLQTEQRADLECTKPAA
Sequence of murine C3b Asn1115 (P01027 749-1663 D1115N, chain 2 of 2): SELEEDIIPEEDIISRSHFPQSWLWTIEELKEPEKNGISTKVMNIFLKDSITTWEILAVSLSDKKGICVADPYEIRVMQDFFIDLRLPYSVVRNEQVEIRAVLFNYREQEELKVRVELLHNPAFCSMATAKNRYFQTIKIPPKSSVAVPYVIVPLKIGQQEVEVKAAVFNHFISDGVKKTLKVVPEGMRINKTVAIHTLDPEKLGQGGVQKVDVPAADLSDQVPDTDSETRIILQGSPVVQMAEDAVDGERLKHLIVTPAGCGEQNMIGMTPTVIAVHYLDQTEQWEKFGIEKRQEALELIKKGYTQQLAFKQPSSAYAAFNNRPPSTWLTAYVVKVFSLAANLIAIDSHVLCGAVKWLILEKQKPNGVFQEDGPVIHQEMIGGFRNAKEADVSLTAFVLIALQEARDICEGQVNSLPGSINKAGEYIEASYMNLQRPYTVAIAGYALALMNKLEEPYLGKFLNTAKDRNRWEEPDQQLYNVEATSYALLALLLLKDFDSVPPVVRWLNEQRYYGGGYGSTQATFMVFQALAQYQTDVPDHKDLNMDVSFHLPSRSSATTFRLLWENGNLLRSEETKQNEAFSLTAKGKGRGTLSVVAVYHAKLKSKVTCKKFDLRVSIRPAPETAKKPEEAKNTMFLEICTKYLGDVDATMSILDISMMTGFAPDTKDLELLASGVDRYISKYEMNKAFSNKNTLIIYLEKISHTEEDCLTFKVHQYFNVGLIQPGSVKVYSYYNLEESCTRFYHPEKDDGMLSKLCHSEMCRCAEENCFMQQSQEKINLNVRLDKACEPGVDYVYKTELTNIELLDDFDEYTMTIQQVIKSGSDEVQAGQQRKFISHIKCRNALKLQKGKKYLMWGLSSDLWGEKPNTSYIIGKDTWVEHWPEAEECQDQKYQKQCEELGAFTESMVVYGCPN

B1: human membrane cofactor protein (MCP) (natural protein)
chain: CEEPPTFEAMELIGKPKPYYEIGERVDYKCKKGYFYIPPLATHTICDRNHTWLPVSDDACYRETCPYIRDPLNGQAVPANGTYEFGYQMHFICNEGYYLIGEEILYCELKGSVAIWSGKPPICEKVLCTPPPKIKNGKHTFSEVEVFEYLDAVTYSCDPAPGPDPFSLIGESTIYCGDNSVWSRAAPECKVVKCRFPVVENGKQISGFGKKFYYKATVMFECDKGFYLDGSDTIVCDSNSTWDPPVPKCLKVLPPSSTKPPALSHSVSTSSTTKSPASSASGPRPTYKPPVSNYPGYPKPEEGILDSLDVWVIAVIVIAIVVGVAVICVVPYRYLQRRKKKGTYLTDETHREVKFTSL
Work on B1 yielded a Kd [1] of 2.1 µM.

B2: recombinant human FH SCRs 19–20 (domain or fragment)
chain: GKCGPPPPIDNGDITSFPLSVYAPASSVEYQCQNLYQLEGNKRITCRNGQWSEPPKCLHPCVISREIMENYNIALRWTAKQKLYSRTGESVEFVCKRGYRLSSRSHTLRTTCWDGKLEYPTCAK
modifications: C3b made from plasma-purified C3 by factor B/factor D cleavage (C3a released); beta and alpha' chains disulfide-linked; thioester (Cys1010-Gln1013) hydrolysed; N-glycosylated; amine-coupled to CM5 chip
For B2, the Kd (murine C3b Asn1115) was greater than 17.4 µM.

B3: human FH (natural protein)
chain: EDCNELPPRRNTEILTGSWSDQTYPEGTQAIYKCRPGYRSLGNVIMVCRKGEWVALNPLRKCQKRPCGHPGDTPFGTFTLTGGNVFEYGVKAVYTCNEGYQLLGEINYRECDTDGWTNDIPICEVVKCLPVTAPENGKIVSSAMEPDREYHFGQAVRFVCNSGYKIEGDEEMHCSDDGFWSKEKPKCVEISCKSPDVINGSPISQKIIYKENERFQYKCNMGYEYSERGDAVCTESGWRPLPSCEEKSCDNPYIPNGDYSPLRIKHRTGDEITYQCRNGFYPATRGNTAKCTSTGWIPAPRCTLKPCDYPDIKHGGLYHENMRRPYFPVAVGKYYSYYCDEHFETPSGSYWDHIHCTQDGWSPAVPCLRKCYFPYLENGYNQNYGRKFVQGKSIDVACHPGYALPKAQTTVTCMENGWSPTPRCIRVKTCSKSSIDIENGFISESQYTYALKEKAKYQCKLGYVTADGETSGSITCGKDGWSAQPTCIKSCDIPVFMNARTKNDFTWFKLNDTLDYECHDGYESNTGSTTGSIVCGYNGWSDLPICYERECELPKIDVHLVPDRKKDQYKVGEVLKFSCKPGFTIVGPNSVQCYHFGLSPDLPICKEQVQSCGPPPELLNGNVKEKTKEEYGHSEVVEYYCNPRFLMKGPNKIQCVDGEWTTLPVCIVEESTCGDIPELEHGWAQLSSPPYYYGDSVEFNCSESFTMIGHRSITCIHGVWTQLPQCVAIDKLKKCKSSNLIILEEHLKNKKEFDHNSNIRYRCRGKEGWIHTVCINGRWDPEVNCSMAQIQLCPPPPQIPNSHNMTTTLNYRDGEKVSVLCQENYLIQEGEEITCKDGRWQSIPLCVEKIPCSQPPQIEHGTINSSRSSQESYAHGTKLSYTCEGGFRISEENETTCYMGKWSSPPQCEGLPCKSPPEISHGVVAHMSDSYQYGEEVTYKCFEGFGIDGPAIAKCLGEKWSHPPSCIKTDCLSLPSFENAIPMGEKKDVYKAGEQVTYTCATYYKMDGASNVTCINSRWTGRPTCRDTSCVNPPTVQNAYIVSRQMSKYPSGERVRYQCRSPYEMFGDEEVMCLNGNWTEPPQCKDSTGKCGPPPPIDNGDITSFPLSVYAPASSVEYQCQNLYQLEGNKRITCRNGQWSEPPKCLHPCVISREIMENYNIALRWTAKQKLYSRTGESVEFVCKRGYRLSSRSHTLRTTCWDGKLEYPTCAKR
Work on B3 yielded a Kd [2] of 3.79 µM and a Kd [3] of 6.37 µM.
